Test results published in article PMC9215227 (Journal of Virology, 2022).

Target: NP of SARS-CoV-2 (catalog no. 40588-V07E; Sino Biological) (SARS-CoV-2, UniProt P0DTC9 1-419)
Assay: SPR; […], Biacore T200; 0.01 M HEPES pH 7.4, 0.15 M NaCl, 3 mM EDTA, 0.05% Tween 20; […]; 1:1 binding model
Settings: both partners purified

B1: 6×His-Flag-G3BP2 (natural protein)
chain: MVMEKPSPLLVGREFVRQYYTLLNKAPEYLHRFYGRNSSYVHGGVDASGKPQEAVYGQNDIHHKVLSLNFSECHTKIRHVDAHATLSDGVVVQVMGLLSNSGQPERKFMQTFVLAPEGSVPNKFYVHNDMFRYEDEVFGDSEPELDEESEDEVEEEQEERQPSPEPVQENANSGYYEAHPVTNGIEEPLEESSHEPEPEPESETKTEELKPQVEEKNLEELEEKSTTPPPAEPVSLPQEPPKAFSWASVTSKNLPPSGTVSSSGIPPHVKAPVSQPRVEAKPEVQSQPPRVREQRPRERPGFPPRGPRPGRGDMEQNDSDNRRIIRYPDSHQLFVGNLPHDIDENELKEFFMSFGNVVELRINTKGVGGKLPNFGFVVFDDSEPVQRILIAKPIMFRGEVRLNVEEKKTRAARERETRGGGDDRRDIRRNDRGPGGPRGIVGGGMMRDRDGRGPPPRGGMAQKLGSGRGTGQMEGRFTGQRR
**Q.** How did the Kd turn out when B1 was run?
**A.** The Kd was 103 nM.
